The target in assay [1] is Thiomicrospira Cas2 (Thiomicrospira). The experiment in a line: cryo-EM structure.
The target in assay [2] is Thiomicrospira Cas6-RT-Cas1 fusion protein (Thiomicrospira). Briefly: cryo-EM structure.

With Thiomicrospira Cas2 (natural protein), the stoichiometry N in assay [1] is 2.

In assay [2], “Thiomicrospira Cas6-RT-Cas1 fusion protein (enzyme)” gave a stoichiometry N of 2.
